According to patent US8603949B2, “Libraries of optimized cytochrome P450 enzymes and the optimized P450 enzymes” (California Institute of Technology, priority 2003, dated 2013):

B1: Chimera 169-197M: mirror chimera of 169-197, sequences from opposite parents at every position (protein)
chain: KETSPIPQPKTFGPLGNLPLIDKDKPTLSLIKLAEEQGPIFQIHTPAGTTIVVSGHELVKEVCDEERFDKSIEGALEKVRAFSGDGLATSWTHEPNWRKAHNILMPTFSQRAMKDYHEKMVDIAVQLIQKWARLNPNEAVDVPGDMTRLTLDTIGLCGFNYRFNSYYREQPHPFITSMVRALDEAMNKLQRANPDDPAMVRTKRQFRYDIQTMFSLVDSIIAERRANGDQDEKDLLARMLNVEDPETGEKLDDENIRFQIITFLIAGHETTSGLLSFATYFLLKHPDKLKKAYEEVDRVLTDAAPTYKQVLELTYIRMILNESLRLWPTAPAFSLYPKEDTVIGGKFPITTNDRISVLIPQLHRDRDAWGKDAEEFRPERFEHQDQVPHHAYKPFGNGQRACIGMQFALHEATLVLGMILKYFTLIDHENYELDIKQTLTLKPGDFHISVQSRHQEAIHADVQAAE
modifications: Chimeric Cytochrome P450 heme group sequence from Bacillus megaterium and Bacillus subtilis
B2: Chimera 70-299: CYP102A1 heme domain with residues 70-299 from CYP102A2 (protein)
chain: TIKEMPQPKTFGELKNLPLLNTDKPVQALMKIADELGEIFKFEAPGRVTRYLSSQRLIKEACDESRFDKSIEGALEKVRAFSGDGLATSWTHEPNWRKAHNILMPTFSQRAMKDYHEKMVDIAVQLIQKWARLNPNEAVDVPGDMTRLTLDTIGLCGFNYRFNSYYRETPHPFINSMVRALDEAMHQMQRLDVQDKLMVRTKRQFRYDIQTMFSLVDSIIAERRANGDQDEKDLLARMLNVEDPETGEKLDDENIRFQIITFLIAGHETTSGLLSFATYFLLKHPDKLKKAYEEVDRVLTDPVPSYKQVKQLKYVGMVLNEALRLWPTAPAFSLYAKEDTVLGGEYPLEKGDELMVLIPQLHRDKTIWGDDVEEFRPERFENPSAIPQHAFKPFGNGQRACIGQQFALHEATLVLGMMLKHFDFEDHTNYELDIKETLTLKPEGFVVKAKSKKIPLGGIPSPST
modifications: Chimeric Cytochrome P450 heme group sequence from Bacillus megaterium and Bacillus subtilis
notes: CYP102A1 heme domain with residues 70-299 from CYP102A2
B3: Chimera 364-403: CYP102A1 heme domain with residues 364-403 from CYP102A2 (protein)
chain: TIKEMPQPKTFGELKNLPLLNTDKPVQALMKIADELGEIFKFEAPGRVTRYLSSQRLIKEACDESRFDKNLSQALKFVRDFAGDGLATSWTHEKNWKKAHNILLPSFSQQAMKGYHAMMVDIAVQLVQKWERLNADEHIEVPEDMTRLTLDTIGLCGFNYRFNSFYRDQPHPFITSMVRALDEAMNKLQRANPDDPAYDENKRQFQEDIKVMNDLVDKIIADRKASGEQSDDLLTHMLNGKDPETGEPLDDENIRYQIITFLIAGHETTSGLLSFALYFLVKNPHVLQKAAEEAARVLVDPVPSYKQVKQLKYVGMVLNEALRLWPTAPAFSLYAKEDTVLGGEYPLEKGDELMVLIPQLHRDRDAWGKDAEEFRPERFEHQDQVPHHAYKPFGNGQRACIGMQFALHEATLVLGMMLKHFDFEDHTNYELDIKETLTLKPEGFVVKAKSKKIPLGGIPSPST
modifications: Chimeric Cytochrome P450 heme group sequence from Bacillus megaterium and Bacillus subtilis
notes: CYP102A1 heme domain with residues 364-403 from CYP102A2
B4: Chimera 165-256M: mirror chimera of 165-256, sequences from opposite parents at every position (protein)
chain: KETSPIPQPKTFGPLGNLPLIDKDKPTLSLIKLAEEQGPIFQIHTPAGTTIVVSGHELVKEVCDEERFDKSIEGALEKVRAFSGDGLATSWTHEPNWRKAHNILMPTFSQRAMKDYHEKMVDIAVQLIQKWARLNPNEAVDVPGDMTRLTLDTIGLCGFNYRFNSFYRDQPHPFITSMVRALDEAMNKLQRANPDDPAYDENKRQFQEDIKVMNDLVDKIIADRKASGEQSDDLLTHMLNGKDPETGEPLDDENIRYQIITFLIAGHETTSGLLSFATYFLLKHPDKLKKAYEEVDRVLTDAAPTYKQVLELTYIRMILNESLRLWPTAPAFSLYPKEDTVIGGKFPITTNDRISVLIPQLHRDRDAWGKDAEEFRPERFEHQDQVPHHAYKPFGNGQRACIGMQFALHEATLVLGMILKYFTLIDHENYELDIKQTLTLKPGDFHISVQSRHQEAIHADVQAAE
modifications: Chimeric Cytochrome P450 heme group sequence from Bacillus megaterium and Bacillus subtilis
B5: Chimera 285-341: CYP102A1 heme domain with residues 285-341 from CYP102A2 (protein)
chain: TIKEMPQPKTFGELKNLPLLNTDKPVQALMKIADELGEIFKFEAPGRVTRYLSSQRLIKEACDESRFDKNLSQALKFVRDFAGDGLATSWTHEKNWKKAHNILLPSFSQQAMKGYHAMMVDIAVQLVQKWERLNADEHIEVPEDMTRLTLDTIGLCGFNYRFNSFYRDQPHPFITSMVRALDEAMNKLQRANPDDPAYDENKRQFQEDIKVMNDLVDKIIADRKASGEQSDDLLTHMLNGKDPETGEPLDDENIRYQIITFLIAGHETTSGLLSFALYFLVKNPDKLKKAYEEVDRVLTDAAPTYKQVLELTYIRMILNESLRLWPTAPAFSLYPKEDTVIGGEYPLEKGDELMVLIPQLHRDKTIWGDDVEEFRPERFENPSAIPQHAFKPFGNGQRACIGQQFALHEATLVLGMMLKHFDFEDHTNYELDIKETLTLKPEGFVVKAKSKKIPLGGIPSPST
modifications: Chimeric Cytochrome P450 heme group sequence from Bacillus megaterium and Bacillus subtilis
notes: CYP102A1 heme domain with residues 285-341 from CYP102A2
B6: CYP102A2: parent P450 heme domain from Bacillus subtilis, with the F88A mutation (protein, listed as Bacillus subtilis)
chain: KETSPIPQPKTFGPLGNLPLIDKDKPTLSLIKLAEEQGPIFQIHTPAGTTIVVSGHELVKEVCDEERFDKSIEGALEKVRAFSGDGLATSWTHEPNWRKAHNILMPTFSQRAMKDYHEKMVDIAVQLIQKWARLNPNEAVDVPGDMTRLTLDTIGLCGFNYRFNSYYRETPHPFINSMVRALDEAMHQMQRLDVQDKLMVRTKRQFRYDIQTMFSLVDSIIAERRANGDQDEKDLLARMLNVEDPETGEKLDDENIRFQIITFLIAGHETTSGLLSFATYFLLKHPDKLKKAYEEVDRVLTDAAPTYKQVLELTYIRMILNESLRLWPTAPAFSLYPKEDTVIGGKFPITTNDRISVLIPQLHRDRDAWGKDAEEFRPERFEHQDQVPHHAYKPFGNGQRACIGMQFALHEATLVLGMILKYFTLIDHENYELDIKQTLTLKPGDFHISVQSRHQEAIHADVQAAE

Experiments:
[1] = Thermostability (loss of Soret band at increasing temperatures); assay type: physicochemical; conditions: cell extracts heated 10 minutes
Procedure: Thermostability was assayed by monitoring the loss of the Soret band at increasing temperatures. […] However, thermostability may be important for retention of catalytic activity: the two chimeras that lacked peroxygenase activity were also the least thermostable.
Cell extracts were heated in a thermocycler for 10 minutes at various temperatures, followed by cooling to 4° C. Extracts were centrifuged for 5 minutes at 3500×g to remove any precipitates. Carbon monoxide reduced difference spectroscopy was used to quantitate the amount of P450. The reduction of the carbon monoxide peak was monitored over a range of temperatures.

[2] = Peroxidase activity with ABTS and H2O2; assay type: biochemical; conditions: for Peroxidase activity: 10 mM ABTS, 20 mM H2O2, pH 5.0, activities <0.2 not detectable (N.D.); for peroxidase activity relative to parents: ABTS
Source text: P450s can reduce peroxide to water (and a proton) using a mechanism similar to that of peroxidases, although the intrinsic rate for P450s is many orders of magnitude slower. (Mansuy, D., Comp Biochem Physiol C Pharmacol Toxicol Endocrinol 121, 5-14 (1998)). It has been proposed that the earliest P450 function may have been as a peroxidase. (Gotoh, O., Cytochrome P450, 2nd Edition, pp. 255-272 (1993)). To investigate how recombination affects P450 peroxidase activity, the colorimetric substrate 2,2′-azino-bis(3-ethylbenzothiazoline-6-sulfonate) (ABTS) was used to monitor this reaction (Childs et al., Biochem J 145,93-103 (1975)).
This example provides an example of how one can measure peroxidase activity. Initial rates of peroxidase activity were measured by monitoring the accumulation of the radical cation of ABTS at 414 nm (Childs et al., Biochem J., 145:93-103 (1975)). Enzyme (1 μM) was mixed with 10 mM ABTS in 200 mM phosphate buffer (pH 5.0) in a cuvette at room temperature. Samples were zeroed and reactions were initiated with the addition of H2O2 to a concentration of 20 mM. The absorbance at 414 nm was monitored for 5 minutes. Rates were determined from the steepest portion of the time course. An extinction coefficient of […] for ABTS was used.

[3] = Peroxygenase substrate activity profile; assay type: biochemical; conditions: 20 mM H2O2
Procedure: The chimeras were assayed for hydroxylation of p-nitrophenoxydodecanoic acid (12-pNCA), a fatty acid analog that is hydroxylated by CYP102A1 and CYP102A2 to yield p-nitrophenolate (Schwaneberg et al., Anal Biochem 269,359-366 (1999)). […] When hydroxylation rates for the parent CYP102 enzymes were monitored using the maximum soluble concentrations of these substrates, activity could only be detected on 2-phenoxy-ethanol.
Chimeras were assayed for peroxygenase activity on 12-pNCA, 2-phenoxy -ethanol and allyloxy-benzene. […] Rates are reported in nmol product/nmol P450/minute. […] Those with no activity include 65-256 and 277-365. Those with new activity include 165-256, 191-335, and 43-135.
This Example provides one method by which peroxygenase activity of a P450 enzyme may be characterized. First order rates for p-nitrophenolate accumulation were determined using 1 μM enzyme, 20 mM H2O2, 250 μM 12-pNCA and 0.5% dimethyl sulfoxide (DMSO) in 100 mM Tris-HCl (pH 8.2) at room temperature. Enzyme, substrate, buffer and DMSO were combined in a cuvette and zeroed at 410 nm. Reaction mixtures were incubated for 4 minutes and initiated by the addition of H2O2 to a final concentration of 20 mM. Initial rates were determined by monitoring the accumulation of p-nitrophenolate at 410 nm, and data from the first six seconds were used to determine initial rates. […] The extinction coefficient of p-nitrophenolate is 13,200 M^−1cm^−1 (Schwaneberg et al., Anal Biochem 269:359-366 (1999)).
Rates on 2-phenoxy-ethanol and allyloxy-benzene were determined using 2 μM enzyme, 20 mM H2O2, 1% DMSO, and 1% acetone in 100 mM N-[2-hydroxyethyl]piperazine-N′-[3-propanesulfonic acid] (Epps) (pH 8.2) at room temperature. Substrate concentrations for 2-phenoxy-ethanol (100 mM) and allyloxy benzene (50 mM) maintained saturation. Reactions were initiated by the addition of H2O2 and quenched at appropriate times using an equal volume of a solution containing 4M urea and 100 mM NaOH. 120 μl of 0.6% 4-AAP was added, followed by mixing and addition of 120 μl of 0.6% potassium persulfate. Color was allowed to develop for 20 minutes before absorbance was read at 500 nm. Rates were determined from the linear region of the time course. The major products were determined by GC/MS to be the hemiacetal, which decomposes to phenol. The extinction coefficient for the 4-AAP/phenol complex was determined to be 4,800 M^−1cm^−1. The results can be seen in FIG. 4.

| Molecule | Tm [1] | Peroxidase activity [2] | peroxidase activity relative to parents [2] | substrate activity profile relative to parents [3] |
| --- | --- | --- | --- | --- |
| B1 | 43 °C | 0.3 nmol product/nmol P450/min | did not show similarly enhanced levels | altered activity |
| B2 | 42 °C | 0.8 nmol product/nmol P450/min | – | altered activity |
| B3 | 51 °C | 1 nmol product/nmol P450/min | – | parent-like profiles |
| B4 | 50 °C | 3.5 nmol product/nmol P450/min | did not show similarly enhanced levels | parent-like profiles |
| B5 | 53 °C | 2.1 nmol product/nmol P450/min | – | parent-like profiles |
| B6 | 44 °C | 0.4 nmol product/nmol P450/min | low, but detectable peroxidase activity | – |
